These results are taken from article doi:10.1101/162842.

The target of this assay is mCardinal. As to the kind of experiment: SEC + AUC.

Turning to mCardinal, the stoichiometry N (in general, a count of units in the complex or per binding partner) was determined as 2.
